Laboratory results: patent US20260242735A1 (UNIVERSIT T BASEL, published 2026)

How the values were obtained:
Assay in all cases: flow cytometry, transfected cells
human CD33 Y129S = human CD33 Y129S (human, UniProt P20138 18-364)
human CD33 F44P = human CD33 F44P (human, UniProt P20138 18-364)
human CD33 Q24T = human CD33 Q24T (human, UniProt P20138 18-364)
human CD33 N20L = human CD33 N20L (human, UniProt P20138 18-364)
human CD33 D18R = human CD33 D18R (human, UniProt P20138 19-364)
human CD33 P46L = human CD33 P46L (human, UniProt P20138 18-364)
human CD33 F21H = human CD33 F21H (human, UniProt P20138 18-364)
human CD33 Q24E = human CD33 Q24E (human, UniProt P20138 18-364)

Measured: binding result

human CD33 D18R, sequence (P20138 18-364 D18R limits assumed): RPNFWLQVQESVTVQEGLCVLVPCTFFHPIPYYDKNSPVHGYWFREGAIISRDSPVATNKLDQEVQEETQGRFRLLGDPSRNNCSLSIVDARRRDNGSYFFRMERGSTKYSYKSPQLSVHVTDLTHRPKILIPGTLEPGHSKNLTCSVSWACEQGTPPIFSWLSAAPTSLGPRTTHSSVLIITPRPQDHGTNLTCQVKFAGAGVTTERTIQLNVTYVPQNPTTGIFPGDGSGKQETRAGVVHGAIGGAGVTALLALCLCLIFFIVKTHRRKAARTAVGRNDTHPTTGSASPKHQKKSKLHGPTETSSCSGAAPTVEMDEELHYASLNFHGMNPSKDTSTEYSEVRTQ
human CD33 Q24E, sequence (P20138 18-364 Q24E limits assumed): as the sequence (P20138 18-364 D18R limits assumed) above, with R1D, Q7E counted along it
human CD33 P46L, sequence (P20138 18-364 P46L limits assumed): as the sequence (P20138 18-364 D18R limits assumed) above, with R1D, P29L counted along it
human CD33 F44P, sequence (P20138 18-364 F44P limits assumed): as the sequence (P20138 18-364 D18R limits assumed) above, with R1D, F27P counted along it
human CD33 F21H, sequence (P20138 18-364 F21H limits assumed): as the sequence (P20138 18-364 D18R limits assumed) above, with R1D, F4H counted along it
human CD33 Y129S, sequence (P20138 18-364 Y129S limits assumed): as the sequence (P20138 18-364 D18R limits assumed) above, with R1D, Y112S counted along it
human CD33 N20L, sequence (P20138 18-364 N20L limits assumed): as the sequence (P20138 18-364 D18R limits assumed) above, with R1D, N3L counted along it
human CD33 Q24T, sequence (P20138 18-364 Q24T limits assumed): as the sequence (P20138 18-364 D18R limits assumed) above, with R1D, Q7T counted along it

B1: Refmab #3 (antibody, human IgG1, V domains shown)
VH: QVQLVQSGAEVKKPGSSVKVSCKASGYTFTDYNMHWVRQAPGQGLEWIGYIYPYNGGTGYNQKFKSKATITADESTNTAYMELSSLRSEDTAVYYCARGRPAMDYWGQGTLVTVSS
VL: DIQMTQSPSSLSASVGDRVTITCRASESVDNYGISFMNWFQQKPGKAPKLLIYAASNQGSGVPSRFSGSGSGTDFTLTISSLQPDDFATYYCQQSKEVPWTFGQGTKVEIK
no binding (tested: below 20%): human CD33 Y129S | human CD33 F44P | human CD33 Q24T | human CD33 N20L | human CD33 D18R | human CD33 P46L | human CD33 F21H | human CD33 Q24E
